Laboratory results taken from the supplement of paper PMC10724198.
± gives the standard deviation of the averaged measurements.

These sequences were tested on Saccharomyces cerevisiae (assay: protein stability index of tFT-peptide fusion (C-terminal peptide) (PSI (0-1 scale)); higher = more stable (slower turnover)). Conditions: genetic background: wild type; temperature: 30 C.
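Further: PSI is a weighted mean of sequencing reads over stability bins, variants kept only with over 10 reads, mCherry proximal and sfGFP distal, peptide attached via GGGS linker.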

Compared with VLLRKLLCPGYV, TYRLPLLAPAPR is higher in protein stability index: 0.598 ± 0.016 for the first, 0.688 ± 0.0097 for the second.

YVFFPNGGLRLG and RLFFSRSVRSFF are within error of each other in protein stability index: 0.564 ± 0.022 for the first, 0.529 ± 0.017 for the second.

SVESAVRALQPT and NDRLDRRDWWEG are within error of each other in protein stability index: 0.731 ± 0.042 for the first, 0.695 ± 0.022 for the second.

First: SCSFLISLLLLP
Second: HFVAALVLLTLD
The protein stability index of the first is lower: 0.525 ± 0.023 for the first, 0.72 ± 0.17 for the second.

SPPPAPVPAPPR and ECAGVVRAKLPA are within error of each other in protein stability index: 0.678 ± 0.048 for the first, 0.718 ± 0.05 for the second.

LISLSHLSANQM and QGDPTCLKGINE are within error of each other in protein stability index: 0.665 ± 0.012 for the first, 0.669 ± 0.05 for the second.

Going from VAVGAGAGAMGL to LYPEELQATAVY, the protein stability index falls from 0.656 ± 0.0094 to 0.5892 ± 0.00086.

Compared with PPDLSWPPAPLP, VEDGQGEYRRWV is lower in protein stability index: 0.824 ± 0.021 for the first, 0.606 ± 0.049 for the second.

FPFVVVISSSGE and GGQGFWRLWCLG are within error of each other in protein stability index: 0.693 ± 0.23 for the first, 0.686 ± 0.05 for the second.

PPPPPLHPPPPL and HSHTHRHSHGTR are within error of each other in protein stability index: 0.605 ± 0.056 for the first, 0.7 ± 0.083 for the second.

Compared with KKGREKKQQKER, IKKKQKIPKNAK is lower in protein stability index: 0.717 ± 0.015 for the first, 0.678 ± 0.013 for the second.

ASPYTVTPLTNS and SIYLLQRRQFDP are within error of each other in protein stability index: 0.693 ± 0.016 for the first, 0.677 ± 0.048 for the second.

FLTSPFIITRMP and PGVRGVKPVGVS are within error of each other in protein stability index: 0.593 ± 0.071 for the first, 0.675 ± 0.092 for the second.

Going from RLKTNKVIIKIK to VSWLSTKCWTIL, the protein stability index falls from 0.6665 ± 0.0032 to 0.563 ± 0.038.

GPPPPATPTPPR and EIRPRPYLCERF are within error of each other in protein stability index: 0.767 ± 0.075 for the first, 0.7253 ± 0.0064 for the second.

LSRPTSWLLSFL and TRERRQAAGGGT are within error of each other in protein stability index: 0.777 ± 0.12 for the first, 0.665 ± 0.055 for the second.

VLKGIVKQTRRG and KAASSLSRPAHL are within error of each other in protein stability index: 0.685 ± 0.058 for the first, 0.734 ± 0.074 for the second.

First: MARIASAQTSLT
Second: SACPPIPPPPPP
The protein stability index of the first is higher: 0.688 ± 0.016 for the first, 0.635 ± 0.026 for the second.

APTPPPRISAWL and WRRPKAGRHAPC are within error of each other in protein stability index: 0.687 ± 0.019 for the first, 0.685 ± 0.0065 for the second.

GVRLSPTACSSI and RRAKMHSRRSLA are within error of each other in protein stability index: 0.678 ± 0.071 for the first, 0.648 ± 0.053 for the second.

LDGSQDGANRRT and CPLPIKANLSFP are within error of each other in protein stability index: 0.728 ± 0.095 for the first, 0.705 ± 0.037 for the second.

ATYNASLERLRP and YGVCFKAFQFKL are within error of each other in protein stability index: 0.719 ± 0.2 for the first, 0.676 ± 0.056 for the second.

Going from PPPPPLRPPRSP to LIPFAFVHPVFL, the protein stability index falls from 0.767 ± 0.013 to 0.62 ± 0.048.

Compared with PPPHSPSPTPHW, QKKELKTKKKER is lower in protein stability index: 0.713 ± 0.016 for the first, 0.663 ± 0.016 for the second.

First: QWAGGQERTAGK
Second: RPKTLGNAREEG
The protein stability index of the first is lower: 0.583 ± 0.024 for the first, 0.708 ± 0.039 for the second.

LSPGSSPAVSGF and SPPPPRPPSQPS are within error of each other in protein stability index: 0.722 ± 0.13 for the first, 0.674 ± 0.021 for the second.

Compared with GKPTPRRPEKDG, IYSFFHHRFVTV is lower in protein stability index: 0.6096 ± 0.0051 for the first, 0.546 ± 0.0081 for the second.

LPFCLPAPLPPP and WRTPVCSPFLLG are within error of each other in protein stability index: 0.708 ± 0.04 for the first, 0.691 ± 0.0053 for the second.

QIHGQKNFKTLD and LLPPPPSPPTPS are within error of each other in protein stability index: 0.704 ± 0.078 for the first, 0.686 ± 0.035 for the second.

LITDSQWLSSLS and LFSPTFPTIYYA are within error of each other in protein stability index: 0.731 ± 0.02 for the first, 0.759 ± 0.059 for the second.

HTLQDERNRRRD and IVLAGVCGGVVG are within error of each other in protein stability index: 0.696 ± 0.072 for the first, 0.733 ± 0.29 for the second.

LLSLATPHPSAL and KPRTLRPDQNAT are within error of each other in protein stability index: 0.714 ± 0.045 for the first, 0.689 ± 0.0087 for the second.

VFLSLLYWSPIG and GVTGRGVSRVYG are within error of each other in protein stability index: 0.643 ± 0.038 for the first, 0.671 ± 0.013 for the second.

KKKTKRKQKIET and CGAAFRSWTVRG are within error of each other in protein stability index: 0.727 ± 0.022 for the first, 0.653 ± 0.067 for the second.

First: YHALNSLHPPSP
Second: PPPLPPPCSAPP
The protein stability index of the first is lower: 0.69 ± 0.027 for the first, 0.736 ± 0.012 for the second.

Compared with QVFTLFPASYPL, FFPQPTPVSISR is higher in protein stability index: 0.688 ± 0.057 for the first, 0.8264 ± 0.0039 for the second.

Going from KKKKKKKKQEQN to SQFWGCALFIEH, the protein stability index rises from 0.63076 ± 3e-05 to 0.652 ± 0.018.

ARSPSPLPSPPP and LPLIISTNYTPD are within error of each other in protein stability index: 0.702 ± 0.018 for the first, 0.723 ± 0.11 for the second.

TSHSSSGQAGKI and QRSFSLRLSAPV are within error of each other in protein stability index: 0.73 ± 0.033 for the first, 0.681 ± 0.029 for the second.

SFSRFFAIRPSF and PFPPSLPSLPLL are within error of each other in protein stability index: 0.723 ± 0.091 for the first, 0.698 ± 0.017 for the second.

DSTLCSCSLHTS and LPPPIPPPLSLA are within error of each other in protein stability index: 0.777 ± 0.12 for the first, 0.703 ± 0.013 for the second.

PHLHTPDDARPL and APSELSSRPFLL are within error of each other in protein stability index: 0.698 ± 0.092 for the first, 0.707 ± 0.026 for the second.

RQPPPRSPPSYL and VYTEFWERQGLL are within error of each other in protein stability index: 0.75 ± 0.063 for the first, 0.796 ± 0.051 for the second.

RVYTSAWAPDWR and VPGASSSLSSSP are within error of each other in protein stability index: 0.62 ± 0.056 for the first, 0.667 ± 0.077 for the second.

NSGSRGTRVVGL and VSGYGSSQDDVR are within error of each other in protein stability index: 0.705 ± 0.084 for the first, 0.6397 ± 0.0056 for the second.

SRAAGILCVVQI and QQRKGTKDNGRE are within error of each other in protein stability index: 0.615 ± 0.084 for the first, 0.707 ± 0.095 for the second.

GYRSSWRALRVG and PPPQSPPLLLVL are within error of each other in protein stability index: 0.564 ± 0.076 for the first, 0.548 ± 0.021 for the second.

Compared with WCWVGRFVGLVR, RRTEGLATAGRV is higher in protein stability index: 0.447 ± 0.11 for the first, 0.666 ± 0.072 for the second.

RRPPPPRGPSPP and PPLPSSPPSSPL are within error of each other in protein stability index: 0.713 ± 0.02 for the first, 0.68 ± 0.013 for the second.

Compared with ESNRHSHVVGPA, FPRSSGRTVNCV is lower in protein stability index: 0.683 ± 0.013 for the first, 0.648 ± 0.0084 for the second.

STLSSPSRRLLP showed a protein stability index of 0.677 ± 0.03.
